Molecular target: T1, polycystin-2 L677A N681A, HA-tagged (human, UniProt Q13563 1-968, L677A | N681A)
T1 sequence (looked up): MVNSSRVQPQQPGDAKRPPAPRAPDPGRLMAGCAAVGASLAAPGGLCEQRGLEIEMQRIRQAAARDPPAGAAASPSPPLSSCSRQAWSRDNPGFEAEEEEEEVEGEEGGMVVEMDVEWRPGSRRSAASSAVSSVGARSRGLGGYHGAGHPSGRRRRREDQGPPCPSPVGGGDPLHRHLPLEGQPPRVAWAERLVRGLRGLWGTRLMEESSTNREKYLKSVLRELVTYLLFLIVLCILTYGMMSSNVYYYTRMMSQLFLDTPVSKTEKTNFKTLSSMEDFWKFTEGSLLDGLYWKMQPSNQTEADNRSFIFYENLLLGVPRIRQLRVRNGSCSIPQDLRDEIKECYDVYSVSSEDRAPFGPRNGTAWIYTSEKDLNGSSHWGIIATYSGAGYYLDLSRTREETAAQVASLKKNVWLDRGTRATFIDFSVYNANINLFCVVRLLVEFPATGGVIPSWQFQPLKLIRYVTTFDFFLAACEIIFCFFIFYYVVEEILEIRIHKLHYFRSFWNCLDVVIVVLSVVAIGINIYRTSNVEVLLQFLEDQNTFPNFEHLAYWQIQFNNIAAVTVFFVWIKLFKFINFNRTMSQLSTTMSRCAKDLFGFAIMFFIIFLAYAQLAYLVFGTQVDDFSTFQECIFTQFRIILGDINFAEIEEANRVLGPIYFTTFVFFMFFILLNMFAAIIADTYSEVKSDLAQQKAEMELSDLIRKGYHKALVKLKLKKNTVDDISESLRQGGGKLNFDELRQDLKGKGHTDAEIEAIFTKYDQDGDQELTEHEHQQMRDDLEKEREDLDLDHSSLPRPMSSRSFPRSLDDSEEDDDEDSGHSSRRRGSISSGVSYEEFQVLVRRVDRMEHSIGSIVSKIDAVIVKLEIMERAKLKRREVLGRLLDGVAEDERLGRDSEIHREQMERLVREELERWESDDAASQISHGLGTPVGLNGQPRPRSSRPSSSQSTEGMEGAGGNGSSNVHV
Test: cell-based or functional assay

B1: C-terminal fragment of polycystin-1 R4100A R4107A H4111A (PC1-CTF AAA), V5-tagged (domain or fragment, human, UniProt P98161 3049-4303, looked up)
chain: TAFGASLFVPPSHVRFVFPEPTADVNYIVMLTCAVCLVTYMVMAAILHKLDQLDASRGRAIPFCGQRGRFKYEILVKTGWGRGSGTTAHVGIMLYGVDSRSGHRHLDGDRAFHRNSLDIFRIATPHSLGSVWKIRVWHDNKGLSPAWFLQHVIVRDLQTARSAFFLVNDWLSVETEANGGLVEKEVLAASDAALLRFRRLLVAELQRGFFDKHIWLSIWDRPPRSRFTRIQRATCCVLLICLFLGANAVWYGAVGDSAYSTGHVSRLSPLSVDTVAVGLVSSVVVYPVYLAILFLFRMSRSKVAGSPSPTPAGQQVLDIDSCLDSSVLDSSFLTFSGLHAEQAFVGQMKSDLFLDDSKSLVCWPSGEGTLSWPDLLSDPSIVGSNLRQLARGQAGHGLGPEEDGFSLASPYSPAKSFSASDEDLIQQVLAEGVSSPAPTQDTHMETDLLSSLSSTPGEKTETLALQRLGELGPPSPGLNWEQPQAARLSRTGLVEGLRKRLLPAWCASLAHGLSLLLVAVAVAVSGWVGASFPPGVSVAWLLSSSASFLASFLGWEPLKVLLEALYFSLVAKRLHPDEDDTLVESPAVTPVSARVPRVRPPHGFALFLAKEEARKVKRLHGMLRSLLVYMLFLLVTLLASYGDASCHGHAYRLQSAIKQELHSRAFLAITRSEELWPWMAHVLLPYVHGNQSSPELGPPRLRQVRLQEALYPDPPGPRVHTCSAAGGFSTSDYDVGWESPHNGSGTWAYSAPDLLGAWSWGSCAVYDSGGYVQELGLSLEESRDRLRFLQLHNWLDNRSRAVFLELTRYSPAVGLHAAVTLRLEFPAAGRALAALSVRPFALRRLSAGLSLPLLTSVCLLLFAVHFAVAEARTWHREGRWRVLRLGAWARWLLVALTAATALVRLAQLGAADRQWTRFVRGRPRRFTSFDQVAQLSSAARGLAASLLFLLLVKAAQQLRFVRQWSVFGKTLCRALPELLGVTLGLVVLGVAYAQLAILLVSSCVDSLWSVAQALLVLCPGTGLSTLCPAESWHLSPLLCVGLWALRLWGALALGAVILAWRYAALRGELYRPAWEPQDYEMVELFLRRLRLWMGLSKVKEFRHKVRFEGMEPLPSRSSRGSKVSPDVPPPSAGSDASHPSTSSSQLDGLSVSLGRLGTRCEPEPSRLQAVFEALLTQFDRLNQATEDVYQLEQQLHSLQGRRSSRAPAGSSRGPSPGLRPALPSRLARASRGVDLATGPSRTPLRAKNKVHPSST
PC2/PC1 molar ratio of injected cRNA (2.5 pmol PC2 AA, 0.77 pmol PC1-CTF AAA) at which the shift of the reversal potential saturated: 3.2 PC2 per PC1 (molar ratio of cRNA)

From publication PMC12183636, “Ion channel function of polycystin‐2/polycystin‐1 heteromer revealed by structure‐guided mutagenesis” (Febs Letters, 2025)
